B1: Proliferating cell nuclear antigen (Saccharomyces cerevisiae), P15873 (parent)
chain: MLEAKFEEASLFKRIIDGFKDCVQLVNFQCKEDGIIAQAVDDSRVLLVSLEIGVEAFQEYRCDHPVTLGMDLTSLSKILRCGNNTDTLTLIADNTPDSIILLFEDTKKDRIAEYSLKLMDIDADFLKIEELQYDSTLSLPSSEFSKIVRDLSQLSDSINIMITKETIKFVADGDIGSGSVIIKPFVDMEHPETSIKLEMDQPVDLTFGAKYLLDIIKGSSLSDRVGIRLSSEAPALFQFDLKSGFLQFFLAPKFNDEE
partner: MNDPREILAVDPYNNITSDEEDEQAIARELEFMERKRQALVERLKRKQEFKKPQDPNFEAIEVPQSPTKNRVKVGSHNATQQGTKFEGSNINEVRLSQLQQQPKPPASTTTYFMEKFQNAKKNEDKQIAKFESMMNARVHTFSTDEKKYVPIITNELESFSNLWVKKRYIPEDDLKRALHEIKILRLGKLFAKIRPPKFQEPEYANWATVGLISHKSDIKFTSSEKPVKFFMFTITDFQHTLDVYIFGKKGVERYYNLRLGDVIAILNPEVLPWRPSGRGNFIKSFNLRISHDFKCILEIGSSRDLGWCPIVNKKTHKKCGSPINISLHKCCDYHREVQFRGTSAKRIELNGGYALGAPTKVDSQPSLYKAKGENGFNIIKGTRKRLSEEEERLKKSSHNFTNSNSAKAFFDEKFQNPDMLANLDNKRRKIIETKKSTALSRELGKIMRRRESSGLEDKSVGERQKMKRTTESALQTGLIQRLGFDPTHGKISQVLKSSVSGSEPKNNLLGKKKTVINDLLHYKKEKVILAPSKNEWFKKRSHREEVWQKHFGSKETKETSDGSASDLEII
B2: Minichromosome maintenance protein 10 (Saccharomyces cerevisiae), P32354 (parent)
chain: B1 partner
B3: Proliferating cell nuclear antigen (Saccharomyces cerevisiae), P15873 (parent)
chain: B1 chain

Variants of: B1
Conditions: with mcm10_yeast MCM10, P32354

effect of a mutation on the interaction	Variant
decreasing interaction	Y133A
disrupting interaction	A251V

Variants of: B2
Conditions: with pcna_yeast POL30, P15873

effect of a mutation on the interaction	Variant
disrupting interaction	Y245A
decreasing interaction	L242Y
disrupting interaction	L242A

Variants of: B3
Conditions: with dpod3_yeast POL32, P47110
dpod3_yeast POL32, P47110, sequence (P47110 whole entry): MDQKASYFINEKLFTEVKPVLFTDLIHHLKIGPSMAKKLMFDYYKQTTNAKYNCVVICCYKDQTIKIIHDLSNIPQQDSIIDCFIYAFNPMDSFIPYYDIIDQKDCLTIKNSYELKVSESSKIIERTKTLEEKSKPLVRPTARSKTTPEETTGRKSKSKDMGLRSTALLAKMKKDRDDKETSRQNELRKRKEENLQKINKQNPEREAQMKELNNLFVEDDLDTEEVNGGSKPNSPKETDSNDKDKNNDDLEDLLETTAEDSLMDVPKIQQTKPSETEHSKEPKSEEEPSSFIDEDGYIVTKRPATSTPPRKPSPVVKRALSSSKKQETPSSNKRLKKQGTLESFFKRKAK

effect of a mutation on the interaction	Variant
decreasing interaction	Y133L
decreasing interaction	Y133A
decreasing interaction	A251V

From IntAct's records for PubMed 16782870
